This data set addresses Pitx2 homeodomain wild-type (UniProt Q99697 85-144). Description: ITC.

B1: TAATCC consensus DNA (dsDNA)
DNA 1: GCTCTAATCCCCG
DNA 2: CGGGGATTAGAGC
B1 returned a Kd of 66 nM.

These data come from paper PMC3264736.
